Laboratory results taken from patent US20190276796A1.
pEC50: −log10 of the molar value.

Key:
[1] = target: human FcγRIIIA V158 (human) (UniProt P08637); experiment: competition flow cytometry on CHO DG-44 cells expressing human FcγRIIIA V158; competitor 50 nmol/L Alexa Fluor 488 labeled anti-CD70 IgG1
[2] = target: human FcγRIIIA V158 (human) (UniProt P08637); experiment: competition flow cytometry on CHO DG-44 cells expressing human FcγRIIIA V158; competitor Alexa Fluor 488 labeled anti-CD70 IgG1
murine FcγRIV (murine) [3] = experiment: competition flow cytometry on CHO DG-44 cells expressing murine FcγRIV; competitor 200 nmol/L Alexa Fluor 488 labeled anti-CD70 IgG1
murine FcγRIV (murine), sequence (A0A0B4 entry or part of it limits assumed): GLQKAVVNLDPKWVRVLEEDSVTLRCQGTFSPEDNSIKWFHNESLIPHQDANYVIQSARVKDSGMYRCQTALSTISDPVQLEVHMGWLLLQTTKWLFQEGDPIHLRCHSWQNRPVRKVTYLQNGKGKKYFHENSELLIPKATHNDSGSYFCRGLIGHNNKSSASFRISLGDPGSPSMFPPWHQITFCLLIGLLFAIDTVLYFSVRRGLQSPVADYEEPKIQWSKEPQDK

murine FcγRIV (murine) [4] = experiment: competition flow cytometry on CHO DG-44 cells expressing murine FcγRIV; competitor Alexa Fluor 488 labeled anti-CD70 IgG1

human FcγRIIIA V158 (human), sequence (P08637 17-254 F176V): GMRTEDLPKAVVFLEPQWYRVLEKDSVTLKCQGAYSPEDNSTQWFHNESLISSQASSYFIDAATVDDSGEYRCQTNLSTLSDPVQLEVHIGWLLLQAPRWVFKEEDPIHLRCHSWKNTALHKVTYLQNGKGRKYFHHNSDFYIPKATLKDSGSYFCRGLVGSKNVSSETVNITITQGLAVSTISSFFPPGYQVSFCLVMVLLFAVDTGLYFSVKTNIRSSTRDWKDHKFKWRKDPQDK

h1F6 antibody from host cells cultured in the presence of 50 µM alkynyl fucose peracetate (non-core fucosylated anti-CD70 antibody)
pEC50 [1]: 8.10
fold difference in EC50 against the parent antibody [2]: 14 fold
pEC50 (murine FcγRIV (murine) [3]): 7.68
fold difference in EC50 against the parent (control) anti-CD70 antibody (murine FcγRIV (murine) [4]): 18 fold
